Residues, ends and D or L forms follow the SMILES beside them. *: point of attachment. Cbz = O=C(OCc1ccccc1)*
Key:
[1] = test system: T1, 6X histidine-tagged human ICA512 cytoplasmic domain (residues 601-979)
T1 sequence: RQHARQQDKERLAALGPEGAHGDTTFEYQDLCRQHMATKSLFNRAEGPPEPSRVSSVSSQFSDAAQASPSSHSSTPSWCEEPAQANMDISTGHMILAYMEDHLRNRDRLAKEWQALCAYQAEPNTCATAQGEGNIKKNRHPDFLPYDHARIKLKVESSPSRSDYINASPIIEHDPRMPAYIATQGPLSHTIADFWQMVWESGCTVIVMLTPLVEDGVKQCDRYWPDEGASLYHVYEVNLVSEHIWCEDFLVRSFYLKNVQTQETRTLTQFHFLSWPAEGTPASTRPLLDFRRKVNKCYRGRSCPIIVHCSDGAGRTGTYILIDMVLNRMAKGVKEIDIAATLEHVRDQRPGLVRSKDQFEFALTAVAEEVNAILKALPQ

μ-calpain = target: T2, μ-calpain (Homo sapiens, UniProt P07384); format: biochemical; conditions: bacterially expressed ICA512 (601-979), 50 μM Ca2+, 30 μM inhibitor
T2 sequence (P07384 1-714): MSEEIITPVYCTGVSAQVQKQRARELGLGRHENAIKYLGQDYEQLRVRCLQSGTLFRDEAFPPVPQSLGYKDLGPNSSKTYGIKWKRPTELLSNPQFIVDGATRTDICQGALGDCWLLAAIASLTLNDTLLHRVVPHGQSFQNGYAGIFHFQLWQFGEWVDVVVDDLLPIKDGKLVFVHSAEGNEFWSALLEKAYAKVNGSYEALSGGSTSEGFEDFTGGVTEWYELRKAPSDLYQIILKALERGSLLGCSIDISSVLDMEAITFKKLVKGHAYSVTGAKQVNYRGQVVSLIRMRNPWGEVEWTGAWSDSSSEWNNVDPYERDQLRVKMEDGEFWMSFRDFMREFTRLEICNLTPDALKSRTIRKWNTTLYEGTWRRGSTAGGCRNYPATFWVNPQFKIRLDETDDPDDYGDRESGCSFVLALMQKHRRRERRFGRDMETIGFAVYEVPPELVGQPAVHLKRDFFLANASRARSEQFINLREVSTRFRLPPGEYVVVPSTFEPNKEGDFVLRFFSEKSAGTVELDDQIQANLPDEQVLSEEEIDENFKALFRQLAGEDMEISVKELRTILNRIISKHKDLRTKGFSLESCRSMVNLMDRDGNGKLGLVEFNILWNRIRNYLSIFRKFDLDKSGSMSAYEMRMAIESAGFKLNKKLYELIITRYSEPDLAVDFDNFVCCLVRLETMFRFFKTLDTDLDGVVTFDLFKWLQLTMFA
T2 sequence (P04632 1-268 partner): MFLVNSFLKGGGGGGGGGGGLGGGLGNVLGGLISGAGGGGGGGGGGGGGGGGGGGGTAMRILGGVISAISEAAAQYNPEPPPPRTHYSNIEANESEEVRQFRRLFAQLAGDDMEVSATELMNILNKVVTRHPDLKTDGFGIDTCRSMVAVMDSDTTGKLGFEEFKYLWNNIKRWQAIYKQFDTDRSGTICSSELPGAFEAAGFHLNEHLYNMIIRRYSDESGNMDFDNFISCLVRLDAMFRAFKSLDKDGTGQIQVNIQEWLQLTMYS
Method: In-vitro μ-calpain cleavage. 3 μg bacterially expressed His-ICA512 cytoplasmic domain (residues 601-979) (Ort et al., 2001) were incubated in 20 μl buffer (20 mM Tris-HCl pH 7.5, 50 μM CaCl2, 1 mM L-cysteine) at room temperature with or without 150 ng μ-calpain (Calbiochem) and 30 μM calpeptin or MG-132 for 1, 5, 15 or 45 minutes. The reactions were stopped by addition of an equal volume of 2×SDS sample buffer. Following SDS-PAGE, proteins were stained with Coomassie Blue (Bio-Rad).

[2] = target: ICA512-TMF (endogenous in INS-1 cells) (rat) (UniProt Q63259); experiment: cell-based or functional assay
PIASy = target: T3, PIASy (Mus musculus, UniProt Q9JM05); experiment: GST pull-down assay with PIASy; format: binding; conditions: in-vitro transcribed and translated 35S-labeled partner, glutathione-sepharose beads
T3 construct: made in house; host or cells: in-vitro transcription-translation (T7 coupled system, Promega)
T3 sequence (Q9JM05 2-507): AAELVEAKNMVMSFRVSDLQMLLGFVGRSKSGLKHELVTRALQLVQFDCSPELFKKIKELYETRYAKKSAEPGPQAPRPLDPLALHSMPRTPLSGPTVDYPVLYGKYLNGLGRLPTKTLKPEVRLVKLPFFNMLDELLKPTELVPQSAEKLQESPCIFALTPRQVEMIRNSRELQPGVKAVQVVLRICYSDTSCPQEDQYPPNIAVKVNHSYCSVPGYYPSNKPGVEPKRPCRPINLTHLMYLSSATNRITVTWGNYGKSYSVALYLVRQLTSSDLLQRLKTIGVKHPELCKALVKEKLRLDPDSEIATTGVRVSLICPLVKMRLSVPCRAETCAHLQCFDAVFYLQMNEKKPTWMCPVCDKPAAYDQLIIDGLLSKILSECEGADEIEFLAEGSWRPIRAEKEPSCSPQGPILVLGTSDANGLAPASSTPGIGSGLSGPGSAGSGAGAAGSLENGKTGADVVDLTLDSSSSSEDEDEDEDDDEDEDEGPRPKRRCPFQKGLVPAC
Method: GST-Pull Down Assays. ICA512 (601-979) cDNA in pET28a (invitrogen) (29) was in vitro transcribed and translated using the T7/coupled transcription-translation system (Promega, Madison, Wis.) according to manufacture's instructions. PIAS1-GST and PIASy-GST (a kind gift of Rudolf Grosschedl) were expressed in bacteria as previously described (21, 30). Next, [^35S]-methionine-labeled ICA512 (601-979) was incubated overnight at 4° C. in GST binding buffer (120 mM NaCl, 50 mM Tris pH8, 0.25% Nonidet P-40, 1 mM DTT, 1 mM PMSF) with GST-fusion proteins or GST alone coupled to glutathione-sepharose beads (Amersham, Freiburg, Germany). Beads were washed five times with binding buffer, and then eluted with 10 mM reduced glutathione. The eluate was subjected to SDS-PAGE and analyzed by autoradiography.
Pull-down assays. GST-ICA512 (601-979), GST-ICA512 (700-979), and GST-ICA512 (800-979) were bacterially expressed as described^26. [^35S]-methionine-PIASy, -ICA512 (601-979), -p53 and -firefly luciferase were in-vitro transcribed and translated with the T7/coupled transcription-translation system (Promega) according to the manufacturer's instructions. [^35S]-PIASy was incubated with GST-ICA512 proteins or GST, while [^35S]-ICA512 (601-979), [^35S]-p53 and [^35S]-firefly luciferase were incubated with MBP-Ubc9. Proteins were collected with glutathione-(Amersham) or amylose-(New England Biolabs) sepharose beads as described^38. Proteins eluted from beads with glutathione or maltose were analyzed by SDS-PAGE and autoradiography with a phosphoimager BAS1800 II (Fuji).

STAT5 = experiment: Firefly luciferase reporter assay for STAT activity (8GLE-CAS-FL) in INS-1 cells; format: cell-based, rat; conditions: co-transfected INS-1 cells, hGH stimulation
Method: Firefly luciferase assays. INS-1 cells were co-transfected with 8GLE-CAS-FL and one or two of the following plasmids: pEGFP, ICA512-CCF-GFP, ICA512-CCF(K/A^754)-GFP and PIASy-GFP. Two days after transfection, cells were incubated in low serum medium for 18 hrs, then stimulated with 20 nM hGH for 20 minutes, and finally left in resting buffer for 6 additional hours. Cells were harvested in 500 μl lysis reagent for luciferase assays (Promega) and 10 μl were used for measurement of luciferase activity in a Berthold luminometer. Each sample was performed in triplicate and the data represent the mean of at least 2 independent experiments.

µ-calpain (Calbiochem)
in-vitro cleavage of bacterially expressed ICA512 (601-979) by µ-calpain, Coomassie Blue staining [1]: Cleavage by µ-calpain was inhibited by calpeptin and MG-132, another inhibitor of cysteine proteases (FIG. 8)

CC(C)C[C@@H](C=O)NC(=O)[C@H](CC(C)C)NC(=O)[C@H](CC(C)C)NC(=O)OCc1ccccc1 [MG-132] (Cbz-Leu-Leu-Leu-aldehyde)
Cleavage by μ-calpain (μ-calpain): inhibited

rat µ-calpain (endogenous in INS-1 cells) (from UniProt P97571 1-713)
stimulus-dependent degradation of ICA512-TMF after siRNA knockdown of µ-calpain in INS-1 cells [2]: 1.6 fold

B1: GST-ICA512 (601-979): GST fusion encompassing the entire ICA512 cytoplasmic domain (protein)
chain: RQHARQQDKERLAALGPEGAHGDTTFEYQDLCRQHMATKSLFNRAEGPPEPSRVSSVSSQFSDAAQASPSSHSSTPSWCEEPAQANMDISTGHMILAYMEDHLRNRDRLAKEWQALCAYQAEPNTCATAQGEGNIKKNRHPDFLPYDHARIKLKVESSPSRSDYINASPIIEHDPRMPAYIATQGPLSHTIADFWQMVWESGCTVIVMLTPLVEDGVKQCDRYWPDEGASLYHVYEVNLVSEHIWCEDFLVRSFYLKNVQTQETRTLTQFHFLSWPAEGTPASTRPLLDFRRKVNKCYRGRSCPIIVHCSDGAGRTGTYILIDMVLNRMAKGVKEIDIAATLEHVRDQRPGLVRSKDQFEFALTAVAEEVNAILKALPQ
modifications: left off: a dimerising Fc or GST
notes: GST fusion encompassing the entire ICA512 cytoplasmic domain
binding to PIASy in pull-down assay (PIASy): bound

B2: GST-ICA512 (800-979): GST fusion which lacks the first 100 residues of the PTP domain (protein)
chain: ESGCTVIVMLTPLVEDGVKQCDRYWPDEGASLYHVYEVNLVSEHIWCEDFLVRSFYLKNVQTQETRTLTQFHFLSWPAEGTPASTRPLLDFRRKVNKCYRGRSCPIIVHCSDGAGRTGTYILIDMVLNRMAKGVKEIDIAATLEHVRDQRPGLVRSKDQFEFALTAVAEEVNAILKALPQ
modifications: left off: a dimerising Fc or GST
notes: GST fusion which lacks the first 100 residues of the PTP domain
binding to PIASy in pull-down assay (PIASy): did not bind

B3: ICA512-CCF(K/A^754)-GFP: ICA512-CCF-GFP construct in which Lys754 was replaced by alanine (protein)
chain: SQFSDAAQASPSSHSSTPSWCEEPAQANMDISTGHMILAYMEDHLRNRDRLAKEWQALCAYQAEPNTCATAQGEGNIKKNRHPDFLPYDHARIKLAVESSPSRSDYINASPIIEHDPRMPAYIATQGPLSHTIADFWQMVWESGCTVIVMLTPLVEDGVKQCDRYWPDEGASLYHVYEVNLVSEHIWCEDFLVRSFYLKNVQTQETRTLTQFHFLSWPAEGTPASTRPLLDFRRKVNKCYRGRSCPIIVHCSDGAGRTGTYILIDMVLNRMAKGVKEIDIAATLEHVRDQRPGLVRSKDQFEFALTAVAEEVNAILKALPQ
modifications: left off: large carriers
notes: ICA512-CCF-GFP construct in which Lys754 was replaced by alanine
STAT5 transcription activity (8GLE-CAS-FL luciferase) (STAT5): enhances its transcription activity less than ICA512-CCF-GFP

B4: GST-ICA512 (700-979): GST fusion which only contains the PTP domain (protein)
chain: EDHLRNRDRLAKEWQALCAYQAEPNTCATAQGEGNIKKNRHPDFLPYDHARIKLKVESSPSRSDYINASPIIEHDPRMPAYIATQGPLSHTIADFWQMVWESGCTVIVMLTPLVEDGVKQCDRYWPDEGASLYHVYEVNLVSEHIWCEDFLVRSFYLKNVQTQETRTLTQFHFLSWPAEGTPASTRPLLDFRRKVNKCYRGRSCPIIVHCSDGAGRTGTYILIDMVLNRMAKGVKEIDIAATLEHVRDQRPGLVRSKDQFEFALTAVAEEVNAILKALPQ
modifications: left off: a dimerising Fc or GST
notes: GST fusion which only contains the PTP domain
binding to PIASy in pull-down assay (PIASy): bound

From patent US20090131309A1, “ICA512 COUPLES INSULIN SECRETION AND GENE EXPRESSION IN BETA-CELLS” (Technische Universität Dresden Medizinizche Fakultät Carl …, priority 2004, published 2009)
